Earlier results on one substance are cited in paper PMC7614842.

The data set deals with C3d C3d (Mus musculus) (UniProt P01027).
Sequence of UniProt P01027 (P01027 1002-1303): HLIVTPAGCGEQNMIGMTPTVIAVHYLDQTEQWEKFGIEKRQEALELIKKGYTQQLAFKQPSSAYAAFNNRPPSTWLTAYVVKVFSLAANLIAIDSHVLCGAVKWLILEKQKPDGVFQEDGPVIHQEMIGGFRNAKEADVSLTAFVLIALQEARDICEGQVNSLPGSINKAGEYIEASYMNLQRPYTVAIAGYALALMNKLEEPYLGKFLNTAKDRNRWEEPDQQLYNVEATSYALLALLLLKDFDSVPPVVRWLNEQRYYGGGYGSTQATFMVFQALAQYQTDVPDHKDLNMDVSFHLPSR

As for CR2 (from UniProt P19070), the Kd is 140 nM.
